The labels stand for the following.
B1: [^177Lu]-Compound A-HuMIGF-1R (antibody, V domains shown)
VH: QVQLVQSGAEVVKPGASVKLSCKASGYTFTSYWMHWVKQRPGQGLEWIGEINPSNGRTNYNQKFQGKATLTVDKSSSTAYMQLSSLTSEDSAVYYFARGRPDYYGSSKWYFDVWGQGTTVTVSSASTKGPSVFPLAPSSKSTSGGTAALG
VL: DVVMTQTPLSLPVSLGDPASISCRSSQSIVHSNVNTYLEWYLQKPGQSPRLLIYKVSNRFSGVPDRFSGSGAGTDFTLRISRVEAEDLGIYYCFQGSHVPPTFGGGTKLEIKRTVAAPSVFIFPPSDEQLKSGTASVVCLLNNFYPREAK
notes: Whole antibody HuMIGF-1R (AVE1642, humanized EM164; MALDI m/z about 149835) conjugated with the chelate Compound A (DOTA-GA anhydride) and loaded with 177Lu; also called 177Lu-DOTA-GA-AVE1642; (Compound A)-HuMIGF-1R radiolabelled with Lu-177
B2: [^177Lu]-Compound C-HuMIGF-1R (antibody, V domains shown)
VH: QVQLVQSGAEVVKPGASVKLSCKASGYTFTSYWMHWVKQRPGQGLEWIGEINPSNGRTNYNQKFQGKATLTVDKSSSTAYMQLSSLTSEDSAVYYFARGRPDYYGSSKWYFDVWGQGTTVTVSSASTKGPSVFPLAPSSKSTSGGTAALG
VL: DVVMTQTPLSLPVSLGDPASISCRSSQSIVHSNVNTYLEWYLQKPGQSPRLLIYKVSNRFSGVPDRFSGSGAGTDFTLRISRVEAEDLGIYYCFQGSHVPPTFGGGTKLEIKRTVAAPSVFIFPPSDEQLKSGTASVVCLLNNFYPREAK
notes: Whole antibody HuMIGF-1R (AVE1642) conjugated with the chelate Compound C (DOTA-GA with a PEG3 linker, TFP ester) and loaded with 177Lu; also called Compound C-HuMIGF-1R radiolabelled with Lu-177
B3: [^177Lu]-Compound B-HuMIGF-1R (antibody, V domains shown)
VH: QVQLVQSGAEVVKPGASVKLSCKASGYTFTSYWMHWVKQRPGQGLEWIGEINPSNGRTNYNQKFQGKATLTVDKSSSTAYMQLSSLTSEDSAVYYFARGRPDYYGSSKWYFDVWGQGTTVTVSSASTKGPSVFPLAPSSKSTSGGTAALG
VL: DVVMTQTPLSLPVSLGDPASISCRSSQSIVHSNVNTYLEWYLQKPGQSPRLLIYKVSNRFSGVPDRFSGSGAGTDFTLRISRVEAEDLGIYYCFQGSHVPPTFGGGTKLEIKRTVAAPSVFIFPPSDEQLKSGTASVVCLLNNFYPREAK
notes: Whole antibody HuMIGF-1R (AVE1642) conjugated with the chelate Compound B (DOTA-GA with an 11-aminoundecanoyl linker, TFP ester) and loaded with 177Lu; also called Compound B-HuMIGF-1R radiolabelled with Lu-177

T1 sequence (P08069 31-1367): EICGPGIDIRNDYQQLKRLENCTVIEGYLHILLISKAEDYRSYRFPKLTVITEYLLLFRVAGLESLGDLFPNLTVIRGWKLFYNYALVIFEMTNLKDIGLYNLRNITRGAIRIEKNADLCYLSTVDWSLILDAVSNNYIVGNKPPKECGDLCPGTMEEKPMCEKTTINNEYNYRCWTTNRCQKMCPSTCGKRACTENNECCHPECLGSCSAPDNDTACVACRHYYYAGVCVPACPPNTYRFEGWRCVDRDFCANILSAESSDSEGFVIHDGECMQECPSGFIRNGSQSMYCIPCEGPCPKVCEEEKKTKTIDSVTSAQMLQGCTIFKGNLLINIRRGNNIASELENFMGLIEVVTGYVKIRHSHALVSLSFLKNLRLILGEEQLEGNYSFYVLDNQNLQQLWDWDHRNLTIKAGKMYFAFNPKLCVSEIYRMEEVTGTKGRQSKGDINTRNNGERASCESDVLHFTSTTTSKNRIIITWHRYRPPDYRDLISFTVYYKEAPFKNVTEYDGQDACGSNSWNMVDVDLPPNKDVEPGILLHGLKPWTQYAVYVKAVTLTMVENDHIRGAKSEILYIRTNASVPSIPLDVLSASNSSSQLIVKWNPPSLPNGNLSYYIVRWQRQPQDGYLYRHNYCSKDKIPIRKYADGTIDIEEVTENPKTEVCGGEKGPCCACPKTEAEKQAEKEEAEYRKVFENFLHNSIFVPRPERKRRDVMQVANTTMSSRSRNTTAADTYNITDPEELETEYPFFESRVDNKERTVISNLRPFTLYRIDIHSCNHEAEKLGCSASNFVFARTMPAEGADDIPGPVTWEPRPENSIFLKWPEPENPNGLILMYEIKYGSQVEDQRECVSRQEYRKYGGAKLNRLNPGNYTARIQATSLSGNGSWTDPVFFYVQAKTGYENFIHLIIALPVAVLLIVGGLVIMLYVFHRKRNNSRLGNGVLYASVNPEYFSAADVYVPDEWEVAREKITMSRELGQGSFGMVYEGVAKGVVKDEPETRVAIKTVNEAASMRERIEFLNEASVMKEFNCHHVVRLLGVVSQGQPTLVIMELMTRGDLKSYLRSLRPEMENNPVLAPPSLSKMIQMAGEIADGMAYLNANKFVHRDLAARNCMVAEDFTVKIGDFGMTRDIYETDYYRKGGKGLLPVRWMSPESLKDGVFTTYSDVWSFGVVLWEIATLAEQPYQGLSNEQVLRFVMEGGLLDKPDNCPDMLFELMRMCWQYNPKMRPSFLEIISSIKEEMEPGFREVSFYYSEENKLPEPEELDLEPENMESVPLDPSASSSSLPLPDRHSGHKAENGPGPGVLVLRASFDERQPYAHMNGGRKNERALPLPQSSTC

This assay has as its target T1, insulin-like growth factor-1 receptor (IGF-1R) (human, UniProt P08069 31-1367).
T1 construct: whole, on cells; Endogenous receptor on A431 cells ('IGF-1R expressing A431 cell line'); also called IGF-1 receptor
Briefly: saturation radioligand binding on A431 cells, 4 C, specific binding fitted to a single-site hyperbola. Here is the method:
Nonspecific binding is typically assessed by measuring radioconjugate binding in the presence of a fixed concentration of HumIGF-1R that binds to essentially all the receptors. Since all the receptors are occupied by the HumIGF-1R, the radioconjugate only binds nonspecifically. Kd and Bₘₐₓ values are calculated by nonlinear regression analysis and computerized curve fitting.
The purpose of this assay was to ensure that these new radioconjugates maintained binding characteristics consistent with the native antibody in an IGF-1R expressing A431 cell line. Twenty-four hours prior to the start of the experiment, 1.5×10⁵ A431 cells were seeded in 48-well microplates in 500 μl supplemented medium. The radioconjugate was diluted with binding buffer (PBS+0.5% BSA) to a range of concentrations from 0.08 nM to 40 nM; final assay concentration 0.04 to 20 nM. At the start of the assay, the media is aspirated, discarded and 500 μI of serum-free DMEM was added to each well. The plates were incubated at 37° C. for 1 hour. Following incubation, media was aspirated from each well and discarded. The cells were washed and 100 μI of binding buffer (total binding) or 4 μM cold-antibody (non-specific binding) added to designated wells. Plates were incubated at 4° C. for 1 hour with mild shaking. […] The lysates were transferred to counting tubes and run with radioconjugate standards on the Wizard 1470 gamma counter to determine the radioactivity content (in counts per minute (CPM)) for each lysate. The remaining lysate from each well (25 μI) was transferred to a 96-well plate, and the protein content of each lysate determined using a standard protein quantification assay. Total, non-specific and specific ligand binding determinations, mass of bound conjugate in each lysate were calculated by converting lysate CPM to fmol bound using the specific activity of the conjugate standards and then normalizing the fmol bound to the protein content of each lysate(in milligrams). Specific binding was determined by subtracting the non-specific binding from total binding.
Consider B1, for which the Kd – broadly, the free concentration of one partner at which half of the binding sites on the other are occupied at equilibrium, for simple one-to-one binding – was determined as 2.9 nM.

Turning to B2, the Kd was found to be 2.2 nM.

Regarding B3, the Kd amounted to 2 nM.

The values are drawn from US20190083662A1 (CENTRE FOR PROBE DEVELOPMENT AND COMMERCIALIZATION, published 2019).
